# Measurements: publication PMC9523049, “Structures of Mec1/ATR kinase endogenously stimulated by different genotoxins” (Cell Discovery, 2022)
# Molecular target: T1, Mec1 (yeast homolog of ATR), wild type, activated in vivo by HU or MMS (yeast (endogenous in cultured yeast …, UniProt P38111 1-2368))
# T1 construct: Mec1 kinase, yeast homolog of human ATR, wild type, endogenous; purified together with Ddc2; they may stand in the supplementary file; also called ATR/Mec1; Mec1/ATR kinase; source: endogenously purified from cultured yeast cells treated with HU or MMS
# Test: cryo-EM structure; Mec1-Ddc2 complex endogenously purified from yeast cells treated with HU (HU-Dimer1, HU-Dimer2) or MMS (MMS-Dimer)
# Conditions: both partners purified
# T1 sequence (P38111 whole entry): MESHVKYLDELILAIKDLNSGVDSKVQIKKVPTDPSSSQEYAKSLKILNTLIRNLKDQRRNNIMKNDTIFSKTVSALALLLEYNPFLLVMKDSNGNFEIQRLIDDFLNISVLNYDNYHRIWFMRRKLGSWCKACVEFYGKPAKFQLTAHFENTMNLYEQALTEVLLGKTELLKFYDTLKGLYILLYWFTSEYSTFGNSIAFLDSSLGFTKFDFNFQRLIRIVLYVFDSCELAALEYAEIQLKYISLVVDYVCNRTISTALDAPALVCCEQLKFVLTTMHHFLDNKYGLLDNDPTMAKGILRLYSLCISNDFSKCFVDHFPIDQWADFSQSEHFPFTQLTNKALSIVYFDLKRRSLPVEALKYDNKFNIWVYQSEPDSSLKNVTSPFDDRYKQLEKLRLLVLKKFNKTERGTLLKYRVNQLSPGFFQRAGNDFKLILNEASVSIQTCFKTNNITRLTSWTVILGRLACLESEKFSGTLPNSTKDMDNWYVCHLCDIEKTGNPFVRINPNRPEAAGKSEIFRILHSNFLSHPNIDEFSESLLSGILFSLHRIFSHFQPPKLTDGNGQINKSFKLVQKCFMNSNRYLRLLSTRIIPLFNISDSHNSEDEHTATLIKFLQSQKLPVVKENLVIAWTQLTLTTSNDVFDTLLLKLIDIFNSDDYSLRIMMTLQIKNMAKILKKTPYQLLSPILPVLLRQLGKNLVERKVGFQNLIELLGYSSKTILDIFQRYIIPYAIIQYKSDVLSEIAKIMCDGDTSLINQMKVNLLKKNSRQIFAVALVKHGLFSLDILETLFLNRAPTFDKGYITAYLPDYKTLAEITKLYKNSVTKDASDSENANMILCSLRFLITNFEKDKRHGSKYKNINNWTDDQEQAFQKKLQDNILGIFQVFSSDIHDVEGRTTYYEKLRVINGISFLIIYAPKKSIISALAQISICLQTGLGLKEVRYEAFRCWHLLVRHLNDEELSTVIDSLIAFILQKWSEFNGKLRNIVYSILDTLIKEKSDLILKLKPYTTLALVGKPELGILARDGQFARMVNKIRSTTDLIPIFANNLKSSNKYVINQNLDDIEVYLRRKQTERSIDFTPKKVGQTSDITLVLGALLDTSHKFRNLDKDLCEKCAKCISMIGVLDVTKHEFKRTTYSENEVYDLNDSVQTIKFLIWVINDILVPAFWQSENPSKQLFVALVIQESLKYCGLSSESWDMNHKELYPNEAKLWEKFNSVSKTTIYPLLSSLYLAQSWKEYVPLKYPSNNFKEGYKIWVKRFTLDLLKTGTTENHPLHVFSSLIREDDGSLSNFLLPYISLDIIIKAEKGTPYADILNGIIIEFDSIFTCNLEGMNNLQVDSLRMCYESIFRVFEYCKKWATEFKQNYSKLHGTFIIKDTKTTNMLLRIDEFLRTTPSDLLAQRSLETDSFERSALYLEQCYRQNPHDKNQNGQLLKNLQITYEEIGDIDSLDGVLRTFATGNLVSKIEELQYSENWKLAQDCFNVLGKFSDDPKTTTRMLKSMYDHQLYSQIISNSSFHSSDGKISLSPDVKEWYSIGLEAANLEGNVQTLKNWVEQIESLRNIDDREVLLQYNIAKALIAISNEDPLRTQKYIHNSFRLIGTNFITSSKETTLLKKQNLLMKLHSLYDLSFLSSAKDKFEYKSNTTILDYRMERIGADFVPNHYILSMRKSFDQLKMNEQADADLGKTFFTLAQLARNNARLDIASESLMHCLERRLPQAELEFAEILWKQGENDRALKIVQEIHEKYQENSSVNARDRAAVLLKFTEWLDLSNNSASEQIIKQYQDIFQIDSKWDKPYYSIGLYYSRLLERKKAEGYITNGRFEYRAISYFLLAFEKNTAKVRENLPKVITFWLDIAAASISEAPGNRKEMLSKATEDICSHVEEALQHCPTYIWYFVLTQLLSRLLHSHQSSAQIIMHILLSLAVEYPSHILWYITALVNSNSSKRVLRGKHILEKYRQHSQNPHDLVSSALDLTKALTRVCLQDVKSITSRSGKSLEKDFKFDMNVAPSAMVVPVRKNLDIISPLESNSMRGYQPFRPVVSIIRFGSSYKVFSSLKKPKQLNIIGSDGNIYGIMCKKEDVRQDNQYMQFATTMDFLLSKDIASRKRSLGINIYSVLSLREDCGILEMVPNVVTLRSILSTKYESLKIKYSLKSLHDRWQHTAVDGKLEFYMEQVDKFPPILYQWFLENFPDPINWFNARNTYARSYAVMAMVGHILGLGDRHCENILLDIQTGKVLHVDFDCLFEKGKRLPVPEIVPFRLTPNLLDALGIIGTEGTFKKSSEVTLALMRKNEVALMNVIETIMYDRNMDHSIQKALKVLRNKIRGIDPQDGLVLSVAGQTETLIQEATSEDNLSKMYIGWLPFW
binder,measurement,value
"Ddc2 (yeast homolog of ATRIP) (natural protein, UniProt Q04377 1-747, looked up, Ddc2, yeast homolog of human ATRIP, endogenous; purified together with Mec1; they may stand in the supplementary file; source: endogenously purified from cultured yeast cells treated with HU or MMS) MRRETVGEFSSDDDDDILLELGTRPPRFTQIPPSSAALQTQIPTTLEVTTTTLNNKQSKNDNQLVNQLNKAQGEASMLRDKINFLNIEREKEKNIQAVKVNELQVKHLQELAKLKQELQKLEDEKKFLQMEARGKSKREVITNVKPPSTTLSTNTNTITPDSSSVAIEAKPQSPQSKKRKISDNLLKKNMVPLNPNRIIPDETSLFLESILLHQIIGADLSTIEILNRLKLDYITEFKFKNFVIAKGAPIGKSIVSLLLRCKKTLTLDRFIDTLLEDIAVLIKEISVHPNESKLAVPFLVALMYQIVQFRPSATHNLALKDCFLFICDLIRIYHHVLKVPIHESNMNLHVEPQIFQYELIDYLIISYSFDLLEGILRVLQSHPKQTYMEFFDENILKSFEFVYKLALTISYKPMVNVIFSAVEVVNIITSIILNMDNSSDLKSLISGSWWRDCITRLYALLEKEIKSGDVYNENVDTTTLHMSKYHDFFGLIRNIGDNELGGLISKLIYTDRLQSVPRVISKEDIGMDSDKFTAPIIGYKMEKWLLKLKDEVLNIFENLLMIYGDDATIVNGEMLIHSSKFLSREQALMIERYVGQDSPNLDLRCHLIEHTLTIIYRLWKDHFKQLREEQIKQVESQLIMSLWRFLVCQTETVTANEREMRDHRHLVDSLHDLTIKDQASYYEDAFEDLPEYIEEELKMQLNKRTGRIMQVKYDEKFQEMARTILESKSFDLTTLEEADSLYISMGL",binding result,binds
